This is an account of results in US20220218659.

The target in this data set is T1, Human ACLY, His-tagged, bacterially expressed and purified recombinant full length protein, P53396.
T1 chain: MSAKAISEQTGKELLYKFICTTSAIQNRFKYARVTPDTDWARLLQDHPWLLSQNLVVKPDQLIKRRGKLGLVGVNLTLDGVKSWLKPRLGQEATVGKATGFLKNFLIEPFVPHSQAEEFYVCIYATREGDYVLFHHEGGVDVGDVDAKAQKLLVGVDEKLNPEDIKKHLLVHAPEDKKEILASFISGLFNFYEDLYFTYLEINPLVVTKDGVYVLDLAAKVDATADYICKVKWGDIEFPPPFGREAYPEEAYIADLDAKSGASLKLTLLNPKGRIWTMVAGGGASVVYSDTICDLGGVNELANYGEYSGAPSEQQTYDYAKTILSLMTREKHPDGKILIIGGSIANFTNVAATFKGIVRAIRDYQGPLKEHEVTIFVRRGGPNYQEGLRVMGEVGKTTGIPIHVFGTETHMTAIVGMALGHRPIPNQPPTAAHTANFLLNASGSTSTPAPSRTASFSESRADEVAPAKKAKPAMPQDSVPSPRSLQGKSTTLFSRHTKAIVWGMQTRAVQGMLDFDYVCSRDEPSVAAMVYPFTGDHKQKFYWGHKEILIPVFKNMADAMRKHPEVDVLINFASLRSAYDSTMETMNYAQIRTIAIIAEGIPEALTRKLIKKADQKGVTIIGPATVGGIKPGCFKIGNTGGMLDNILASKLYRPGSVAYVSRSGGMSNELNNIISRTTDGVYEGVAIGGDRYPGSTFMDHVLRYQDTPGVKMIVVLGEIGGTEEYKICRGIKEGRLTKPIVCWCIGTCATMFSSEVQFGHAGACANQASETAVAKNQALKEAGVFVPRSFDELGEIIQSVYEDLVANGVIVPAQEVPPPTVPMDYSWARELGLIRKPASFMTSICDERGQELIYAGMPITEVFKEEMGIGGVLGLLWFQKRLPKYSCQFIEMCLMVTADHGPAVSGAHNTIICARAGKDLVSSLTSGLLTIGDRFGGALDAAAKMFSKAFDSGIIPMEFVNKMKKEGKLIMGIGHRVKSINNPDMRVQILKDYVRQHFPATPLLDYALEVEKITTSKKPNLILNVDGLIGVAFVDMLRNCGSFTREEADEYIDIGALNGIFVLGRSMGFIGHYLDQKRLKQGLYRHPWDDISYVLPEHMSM

B1: Active recombinant Lyn kinase (protein)
chain: MGCIKSKGKDSLSDDGVDLKTQPVRNTERTIYVRDPTSNKQQRPVPESQLLPGQRFQTKDPEEQGDIVVALYPYDGIHPDDLSFKKGEKMKVLEEHGEWWKAKSLLTKKEGFIPSNYVAKLNTLETEEWFFKDITRKDAERQLLAPGNSAGAFLIRESETLKGSFSLSVRDFDPVHGDVIKHYKIRSLDNGGYYISPRITFPCISDMIKHYQKQADGLCRRLEKACISPKPQKPWDKDAWEIPRESIKLVKRLGAGQFGEVWMGYYNNSTKVAVKTLKPGTMSVQAFLEEANLMKTLQHDKLVRLYAVVTREEPIYIITEYMAKGSLLDFLKSDEGGKVLLPKLIDFSAQIAEGMAYIERKNYIHRDLRAANVLVSESLMCKIADFGLARVIEDNEYTAREGAKFPIKWTAPEAINFGCFTIKSDVWSFGILLYEIVTYGKIPYPGRTNADVMTALSQGYRMPRVENCPDELYDIMKMCWKEKAEERPTFDYLQSVLDDFYTATEGQYQQQP
B1: the “ACLY tyrosine residues phosphorylated (phosphoproteomics)” value was “The three ACLY tyrosine residues, Y682, Y252, Y227, were common for Lyn and Src”; the number of ACLY tyrosine residues phosphorylated (in vitro kinase assay, phosphoproteomics) (tyrosine residues) amounted to 6.
